Patent US20210324099A1 (Chugai, published 2021)
Substitutions are numbered along the chain they refer to. Blank lines part the entries; values can stand above or below the binder they belong to.

Legend:
hFcgRIa [1] = molecular target: T1, hFcgRIa (human, UniProt P12314 16-292); assay: SPR 25C
T1 construct: extracellular domain; also called human FcγRIa; FcγRI

hFcgRIIaH [2] = molecular target: T2, hFcgRIIaH (human, UniProt P12318 34-217); assay: SPR 25C
T2 construct: extracellular domain; also called human FcγRIIa type H (H131)
T2 sequence (looked up): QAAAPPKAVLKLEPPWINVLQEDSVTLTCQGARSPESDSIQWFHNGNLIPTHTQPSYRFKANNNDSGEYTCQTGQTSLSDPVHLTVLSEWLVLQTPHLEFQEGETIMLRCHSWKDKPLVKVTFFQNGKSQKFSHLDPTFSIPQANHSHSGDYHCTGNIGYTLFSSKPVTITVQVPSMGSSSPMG

hFcgRIIaR [3] = molecular target: T3, hFcgRIIaR (human, UniProt P12318 34-217); assay: SPR 25C
T3 construct: extracellular domain; also called human FcγRIIa type R (R131)
T3 sequence (looked up): T2 sequence (looked up) with H134R

hFcgRIIb [4] = molecular target: T4, hFcgRIIb (human, UniProt P31994 43-217); assay: SPR 25C
T4 construct: extracellular domain; also called human FcγRIIb
T4 sequence (looked up): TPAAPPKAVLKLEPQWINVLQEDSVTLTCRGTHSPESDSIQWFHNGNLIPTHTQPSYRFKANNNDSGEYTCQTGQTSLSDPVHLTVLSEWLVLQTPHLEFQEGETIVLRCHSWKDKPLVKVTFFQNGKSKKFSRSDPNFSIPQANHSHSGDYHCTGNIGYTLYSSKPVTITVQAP

hFcgRIIIaF [5] = molecular target: T5, hFcgRIIIaF (human, UniProt P08637 17-208); assay: SPR 25C
T5 construct: extracellular domain; also called human FcγRIIIa allotype F158
T5 sequence (P08637 17-208): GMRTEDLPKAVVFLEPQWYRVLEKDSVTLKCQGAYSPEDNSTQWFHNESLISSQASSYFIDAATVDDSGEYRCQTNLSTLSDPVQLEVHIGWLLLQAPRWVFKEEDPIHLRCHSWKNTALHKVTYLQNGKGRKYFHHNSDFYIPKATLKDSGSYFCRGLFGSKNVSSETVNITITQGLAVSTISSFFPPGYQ

hFcgRIIIaV [6] = molecular target: T6, hFcgRIIIaV (human, UniProt P08637 17-208); assay: SPR 25C
T6 construct: extracellular domain; also called human FcγRIIIa allotype V158
T6 sequence (P08637 17-208 F176V): as the sequence (P08637 17-208) above, with F160V counted along it

human FcRn = human FcRn (human, UniProt P55899 24-290; P61769 21-119, limits assumed); assay: SPR 25C pH 6.0, steady state;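 note: antibody captured on chip via anti-human Fab-lambda ligand, human FcRn injected as analyte in 50 mM phosphate buffer with 150 mM NaCl and P20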
Method: Biacore T200 (GE Healthcare) was used to assess the binding activity to human FcRn. Measurement was performed at 25° C. using 50 mM phosphate, 150 mM NaCl, 0.05 w/v %-P20, pH 6.0 as buffer. […] About 400 RU of antibody was captured using a sensor chip immobilized with CaptureSelect™ Human Fab-lambda Kinetics Biotin Conjugate (Thermo Fisher Scientific) as a molecule for ligand capturing, followed by the binding of human FcRn diluted in measuring buffer. The activity of the respective antibodies to bind FcRn was assessed by calculating KD (mol/L) by the steady-state model using Biacore T200 Evaluation Software 2.0.

hFcgRIa [7] = molecular target: T1, hFcgRIa; assay: SPR 25C; relative to A375-G1T3/B167-Lamlib;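 note: SPR with antibody captured on an anti-human Fab-lambda chip, human FcγR analyte at 8 nM for FcγRIa or 1000 nM for the others, pH 7.4, FcγR RU per captured antibody unit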
hFcgRIIaH [8] = molecular target: T2, hFcgRIIaH; assay: SPR 25C; relative to A375-G1T3/B167-Lamlib;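 note: SPR with antibody captured on an anti-human Fab-lambda chip, human FcγR analyte at 8 nM for FcγRIa or 1000 nM for the others, pH 7.4, FcγR RU per captured antibody unit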
hFcgRIIaR [9] = molecular target: T3, hFcgRIIaR; assay: SPR 25C; relative to A375-G1T3/B167-Lamlib;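 note: SPR with antibody captured on an anti-human Fab-lambda chip, human FcγR analyte at 8 nM for FcγRIa or 1000 nM for the others, pH 7.4, FcγR RU per captured antibody unit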
hFcgRIIb [10] = molecular target: T4, hFcgRIIb; assay: SPR 25C; relative to A375-G1T3/B167-Lamlib;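 note: SPR with antibody captured on an anti-human Fab-lambda chip, human FcγR analyte at 8 nM for FcγRIa or 1000 nM for the others, pH 7.4, FcγR RU per captured antibody unit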
hFcgRIIIaF [11] = molecular target: T5, hFcgRIIIaF; assay: SPR 25C; relative to A375-G1T3/B167-Lamlib
hFcgRIIIaV [12] = molecular target: T6, hFcgRIIIaV; assay: SPR 25C; relative to A375-G1T3/B167-Lamlib
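Throughout, for binding per 1RU of antibody: biacore SPR with antibody captured on an anti-human Fab lambda chip, human FcγR injected at 1000 nM (FcγRIa at 8 nM) in pH 7.4 phosphate buffer.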

T1 sequence (P12314 16-292): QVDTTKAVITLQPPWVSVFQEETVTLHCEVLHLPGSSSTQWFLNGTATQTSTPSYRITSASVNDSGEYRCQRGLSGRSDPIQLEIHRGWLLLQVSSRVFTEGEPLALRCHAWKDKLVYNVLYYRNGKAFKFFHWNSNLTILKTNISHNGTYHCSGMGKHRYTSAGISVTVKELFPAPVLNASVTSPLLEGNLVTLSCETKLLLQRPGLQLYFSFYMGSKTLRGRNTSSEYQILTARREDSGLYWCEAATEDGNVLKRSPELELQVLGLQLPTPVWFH

B1: A375-G1T3/B167-Lamlib (antibody, human IgG1, lambda)
heavy: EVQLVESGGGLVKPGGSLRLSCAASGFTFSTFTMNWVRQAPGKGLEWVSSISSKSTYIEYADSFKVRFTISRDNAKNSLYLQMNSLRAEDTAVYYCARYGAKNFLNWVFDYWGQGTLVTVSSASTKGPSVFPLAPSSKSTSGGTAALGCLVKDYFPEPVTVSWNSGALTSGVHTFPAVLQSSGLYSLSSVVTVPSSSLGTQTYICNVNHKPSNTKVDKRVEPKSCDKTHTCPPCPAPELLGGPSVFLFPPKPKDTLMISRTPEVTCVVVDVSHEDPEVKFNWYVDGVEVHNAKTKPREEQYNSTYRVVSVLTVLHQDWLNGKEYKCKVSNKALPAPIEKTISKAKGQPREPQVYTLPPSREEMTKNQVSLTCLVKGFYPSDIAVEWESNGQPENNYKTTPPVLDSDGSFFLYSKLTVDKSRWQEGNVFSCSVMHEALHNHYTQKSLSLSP
light: QSALTQPPSASGSPGQTVTISCTGTRYDVGYYEYVSWYQQHPGKAPKLMIYETSKRLSGVPDRFSGSKSGNTASLTVSGLQAEDEADYYCSSYRYEHQVSFGGGTKLTVLGQPKAAPSVTLFPPSSEELQANKATLVCLISDFYPGAVTVAWKADSSPVKAGVETTTPSKQSNNKYAASSYLSLTPEQWKSHRSYSCQVTHEGSTVEKTVAPTECS
notes: copies: 2 + 2
binding per 1RU of antibody (hFcgRIa [1]): 0.0813 RU | binding per 1RU of antibody (hFcgRIIaH [2]): 0.0567 RU | binding per 1RU of antibody (hFcgRIIaR [3]): 0.0463 RU | binding per 1RU of antibody (hFcgRIIb [4]): 0.011 RU | binding per 1RU of antibody (hFcgRIIIaF [5]): 0.0213 RU | binding per 1RU of antibody (hFcgRIIIaV [6]): 0.07 RU | Kd (human FcRn): 1.27 µM | relative binding amount (hFcgRIa [7]): 1 | relative binding amount (hFcgRIIaH [8]): 1 | relative binding amount (hFcgRIIaR [9]): 1 | relative binding amount (hFcgRIIb [10]): 1 | relative binding amount (hFcgRIIIaF [11]): 1 | relative binding amount (hFcgRIIIaV [12]): 1

B3: A375-P253/B167-Lamlib (antibody, human IgG1, lambda)
heavy: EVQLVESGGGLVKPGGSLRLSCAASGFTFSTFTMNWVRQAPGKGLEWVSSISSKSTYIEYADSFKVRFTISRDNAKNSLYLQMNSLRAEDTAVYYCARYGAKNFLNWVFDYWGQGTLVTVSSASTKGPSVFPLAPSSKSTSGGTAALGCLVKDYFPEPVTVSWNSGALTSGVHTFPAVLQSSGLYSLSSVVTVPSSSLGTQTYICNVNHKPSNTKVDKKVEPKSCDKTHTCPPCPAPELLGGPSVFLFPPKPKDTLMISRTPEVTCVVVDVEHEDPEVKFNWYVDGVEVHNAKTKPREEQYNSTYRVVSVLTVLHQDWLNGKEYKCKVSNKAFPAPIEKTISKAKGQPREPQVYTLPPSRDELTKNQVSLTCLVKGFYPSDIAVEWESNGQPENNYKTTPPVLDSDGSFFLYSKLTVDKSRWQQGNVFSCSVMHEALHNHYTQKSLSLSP
light: B1 light
notes: copies: 2 + 2
binding per 1RU of antibody (hFcgRIa [1]): 0.0937 RU | binding per 1RU of antibody (hFcgRIIaH [2]): 0.0497 RU | binding per 1RU of antibody (hFcgRIIaR [3]): 0.168 RU | binding per 1RU of antibody (hFcgRIIb [4]): 0.156 RU | binding per 1RU of antibody (hFcgRIIIaF [5]): 0.0056 RU | binding per 1RU of antibody (hFcgRIIIaV [6]): 0.0019 RU | Kd (human FcRn): 1.42 µM | relative binding amount (hFcgRIa [7]): 1.15 | relative binding amount (hFcgRIIaH [8]): 0.88 | relative binding amount (hFcgRIIaR [9]): 3.62 | relative binding amount (hFcgRIIb [10]): 14.3 | relative binding amount (hFcgRIIIaF [11]): 0.26 | relative binding amount (hFcgRIIIaV [12]): 0.03

B8: A375-MY518a/B167-Lamlib (antibody, human IgG1, lambda)
heavy: EVQLVESGGGLVKPGGSLRLSCAASGFTFSTFTMNWVRQAPGKGLEWVSSISSKSTYIEYADSFKVRFTISRDNAKNSLYLQMNSLRAEDTAVYYCARYGAKNFLNWVFDYWGQGTLVTVSSASTKGPSVFPLAPSSKSTSGGTAALGCLVKDYFPEPVTVSWNSGALTSGVHTFPAVLQSSGLYSLSSVVTVPSSSLGTQTYICNVNHKPSNTKVDKRVEPKSCDKTHTCPPCPAPELWNGPSVFLFPPKPKDTLMISRTPEVTCVVVDVSDEDPEVKFNWYVDGVEVHNAKTKPREELYNSTYRVVSVLTVLHQDWLNGKEYKCKVSNTALPKPIEKTISKAKGQPREPQVYTLPPSREEMTKNQVSLTCLVKGFYPSDIAVEWESNGQPENNYKTTPPVLDSDGSFFLYSKLTVDKSRWQQGNVFSCSVMHEALHNHYTQKSLSLSP
light: B1 light
notes: copies: 2 + 2
binding per 1RU of antibody (hFcgRIa [1]): 0.0033 RU | binding per 1RU of antibody (hFcgRIIaH [2]): 0.0479 RU | binding per 1RU of antibody (hFcgRIIaR [3]): 0.047 RU | binding per 1RU of antibody (hFcgRIIb [4]): 0.0489 RU | binding per 1RU of antibody (hFcgRIIIaF [5]): 0.0006 RU | binding per 1RU of antibody (hFcgRIIIaV [6]): 0.0009 RU | Kd (human FcRn): 1.32 µM | relative binding amount (hFcgRIa [7]): 0.04 | relative binding amount (hFcgRIIaH [8]): 0.84 | relative binding amount (hFcgRIIaR [9]): 1.01 | relative binding amount (hFcgRIIb [10]): 4.46 | relative binding amount (hFcgRIIIaF [11]): 0.03 | relative binding amount (hFcgRIIIaV [12]): 0.01

Next, values leading:

binding per 1RU of antibody (hFcgRIa [1]): 0.004 RU | binding per 1RU of antibody (hFcgRIIaH [2]): 0.0328 RU | binding per 1RU of antibody (hFcgRIIaR [3]): 0.0335 RU | binding per 1RU of antibody (hFcgRIIb [4]): 0.0313 RU | binding per 1RU of antibody (hFcgRIIIaF [5]): 0.0007 RU | binding per 1RU of antibody (hFcgRIIIaV [6]): 0.0011 RU | Kd (human FcRn): 1.18 µM | relative binding amount (hFcgRIa [7]): 0.05 | relative binding amount (hFcgRIIaH [8]): 0.58 | relative binding amount (hFcgRIIaR [9]): 0.72 | relative binding amount (hFcgRIIb [10]): 2.85 | relative binding amount (hFcgRIIIaF [11]): 0.03 | relative binding amount (hFcgRIIIaV [12]): 0.02
B2: A375-MY201aPh/B167-Lamlib (antibody, human IgG1, lambda)
heavy: B8 heavy with L300Q, T331K
light: B1 light
notes: copies: 2 + 2

binding per 1RU of antibody (hFcgRIa [1]): 0.002 RU | binding per 1RU of antibody (hFcgRIIaH [2]): 0.0466 RU | binding per 1RU of antibody (hFcgRIIaR [3]): 0.046 RU | binding per 1RU of antibody (hFcgRIIb [4]): 0.0482 RU | binding per 1RU of antibody (hFcgRIIIaF [5]): 0.0009 RU | binding per 1RU of antibody (hFcgRIIIaV [6]): 0.0015 RU | Kd (human FcRn): 1.27 µM | relative binding amount (hFcgRIa [7]): 0.02 | relative binding amount (hFcgRIIaH [8]): 0.82 | relative binding amount (hFcgRIIaR [9]): 0.99 | relative binding amount (hFcgRIIb [10]): 4.4 | relative binding amount (hFcgRIIIaF [11]): 0.04 | relative binding amount (hFcgRIIIaV [12]): 0.02
B4: A375-MY518/B167-Lamlib (antibody, human IgG1, lambda)
heavy: B8 heavy with R219K
light: B1 light
notes: copies: 2 + 2

binding per 1RU of antibody (hFcgRIIaH [2]): 0.002 RU | binding per 1RU of antibody (hFcgRIIb [4]): 0.0477 RU | binding per 1RU of antibody (hFcgRIIIaF [5]): -0.0009 RU | binding per 1RU of antibody (hFcgRIIIaV [6]): -0.001 RU | Kd (human FcRn): 1.56 µM | relative binding amount (hFcgRIIaH [8]): 0.03 | relative binding amount (hFcgRIIb [10]): 4.35 | relative binding amount (hFcgRIIIaF [11]): -0.04 | relative binding amount (hFcgRIIIaV [12]): -0.01
B5: A375-TT11/B167-Lamlib (antibody, human IgG1, lambda)
heavy: B8 heavy with R219K, L239Y, W240L, N241G, P243D, T255V, D273H, L300Q, T312P, T331K
light: B1 light
notes: copies: 2 + 2

binding per 1RU of antibody (hFcgRIa [1]): 0.0962 RU | binding per 1RU of antibody (hFcgRIIaH [2]): 0.0029 RU | binding per 1RU of antibody (hFcgRIIaR [3]): 0.0371 RU | binding per 1RU of antibody (hFcgRIIb [4]): 0.143 RU | binding per 1RU of antibody (hFcgRIIIaF [5]): 0.0001 RU | binding per 1RU of antibody (hFcgRIIIaV [6]): 0.0001 RU | Kd (human FcRn): 1.7 µM | relative binding amount (hFcgRIa [7]): 1.18 | relative binding amount (hFcgRIIaH [8]): 0.05 | relative binding amount (hFcgRIIaR [9]): 0.8 | relative binding amount (hFcgRIIb [10]): 13 | relative binding amount (hFcgRIIIaF [11]): 0 | relative binding amount (hFcgRIIIaV [12]): 0
B6: A375-P587/B167-Lamlib (antibody, human IgG1, lambda)
heavy: EVQLVESGGGLVKPGGSLRLSCAASGFTFSTFTMNWVRQAPGKGLEWVSSISSKSTYIEYADSFKVRFTISRDNAKNSLYLQMNSLRAEDTAVYYCARYGAKNFLNWVFDYWGQGTLVTVSSASTKGPSVFPLAPSSKSTSGGTAALGCLVKDYFPEPVTVSWNSGALTSGVHTFPAVLQSSGLYSLSSVVTVPSSSLGTQTYICNVNHKPSNTKVDKKVEPKSCDKTHTCPPCPAPDLLGGDSVFLFPPKPKDTLMISRTPEVTCVVIDVAEEDGEVKFNWYVDGVEVHNAKTKPREEQYNSTYRVVSVLTVLHQDWLNGKEYKCKVSNKALPAPIEKTISKAKGQPREPQVYTLPPSRDELTKNQVSLTCLVKGFYPSDIAVEWESNGQPENNYKTTPPVLDSDGSFFLYSKLTVDKSRWQQGNVFSCSVMHEALHNHYTQKSLSLSP
light: B1 light
notes: copies: 2 + 2

binding per 1RU of antibody (hFcgRIa [1]): 0.0396 RU | binding per 1RU of antibody (hFcgRIIaH [2]): 0.0534 RU | binding per 1RU of antibody (hFcgRIIaR [3]): 0.0338 RU | binding per 1RU of antibody (hFcgRIIb [4]): 0.0401 RU | binding per 1RU of antibody (hFcgRIIIaF [5]): 0.0007 RU | binding per 1RU of antibody (hFcgRIIIaV [6]): 0.0024 RU | Kd (human FcRn): 1.19 µM | relative binding amount (hFcgRIa [7]): 0.49 | relative binding amount (hFcgRIIaH [8]): 0.94 | relative binding amount (hFcgRIIaR [9]): 0.73 | relative binding amount (hFcgRIIb [10]): 3.66 | relative binding amount (hFcgRIIIaF [11]): 0.04 | relative binding amount (hFcgRIIIaV [12]): 0.03
B7: A375-MY201a/B167-Lamlib (antibody, human IgG1, lambda)
heavy: B8 heavy with W240L, L300Q, T331K
light: B1 light
notes: copies: 2 + 2
